In patent EP4671273A1 (Anaveon AG, dated 2025):
Positions count from the first letter of the chain named.

Molecular target: T1, Recombinant hIL-21-Fc (AcroBiosystems) (human, UniProt Q9HBE4 30-162)
T1 construct: bought; also called rhIL-21; not shown: Fc of the bought reagent, not described
Assay: SPR, Fab on captured rhIL-21-Fc

T1 sequence (Q9HBE4 30-162): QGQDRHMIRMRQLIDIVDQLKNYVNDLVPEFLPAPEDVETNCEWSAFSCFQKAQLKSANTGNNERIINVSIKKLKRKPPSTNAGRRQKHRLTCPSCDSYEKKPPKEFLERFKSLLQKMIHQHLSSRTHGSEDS

B1: ZAP122m1 Fab (Fab, V domains shown)
VH: QVQLQESGPGLVKPSETLSLTCTVSGGSISSDFWGWIRQPPGKGLEWIGYISSRGSTNYNPSLKRRVTISVDTSRNQFSLKLSSVTAADTAVYYCARSAGVTDFDFWGQGTLVTVSS
VL: DIQMTQSPSSVSASVGDRVTITCRASQGISSWLAWYYHKPGKAPKLLIYVASSLQSGVPSRFSGSGSGTDFTLTISSLQPEDFATYYCQQANSFPLTFGGGTKVEIK
notes: Fab
- Kd: 0.0517 nM
- koff: 1.91e-05 s⁻¹
- kon: 369000 M⁻¹ s⁻¹

B2: ZAP122m17 Fab (Fab, V domains shown)
VH: B1 VH with R54S
VL: B1 VL with Y37Q
notes: Fab; also called clone m17
- Kd: 0.0842 nM
- koff: 2.81e-05 s⁻¹
- kon: 334000 M⁻¹ s⁻¹

B3: ZAP122m3 Fab (Fab, V domains shown)
VH: B1 VH
VL: B1 VL with Y37Q, V50A
notes: Fab
- Kd: 0.251 nM
- koff: 9.3e-05 s⁻¹
- kon: 370000 M⁻¹ s⁻¹

B4: ZAP122m26 Fab (Fab, V domains shown)
VH: B1 VH with D105A
VL: B1 VL with Y37Q
notes: Fab
- Kd: 3.01 nM
- koff: 0.000701 s⁻¹
- kon: 233000 M⁻¹ s⁻¹

B5: ZAP122m12 Fab (Fab, V domains shown)
VH: B1 VH with D32Y
VL: B1 VL with Y37Q
notes: Fab
- Kd: 8.83 nM
- koff: 0.00424 s⁻¹
- kon: 481000 M⁻¹ s⁻¹

B6: ZAP122m25 Fab (Fab, V domains shown)
VH: B1 VH with F104A
VL: B1 VL with Y37Q
notes: Fab
- Kd: 5.6 nM
- koff: 0.00059 s⁻¹
- kon: 105000 M⁻¹ s⁻¹

B7: ZAP122m15 Fab (Fab, V domains shown)
VH: B1 VH with S52Y
VL: B1 VL with Y37Q
notes: Fab
- Kd: < 0.0174 nM
- koff: < 1e-05 s⁻¹
- kon: 574000 M⁻¹ s⁻¹

B8: ZAP122m20 Fab (Fab, V domains shown)
VH: B1 VH with S98A
VL: B1 VL with Y37Q
notes: Fab
- Kd: 0.0435 nM
- koff: 1.94e-05 s⁻¹
- kon: 446000 M⁻¹ s⁻¹

B9: ZAP122m11 Fab (Fab, V domains shown)
VH: B1 VH
VL: B1 VL with Y37Q, T97A
notes: Fab
- Kd: 0.0404 nM
- koff: 1.46e-05 s⁻¹
- kon: 363000 M⁻¹ s⁻¹

B10: ZAP122m22 Fab (Fab, V domains shown)
VH: B1 VH with V101A
VL: B1 VL with Y37Q
notes: Fab
- Kd: 8.73 nM
- koff: 0.0034 s⁻¹
- kon: 389000 M⁻¹ s⁻¹

B11: ZAP122m6 Fab (Fab, V domains shown)
VH: B1 VH
VL: B1 VL with Y37Q, N92A
notes: Fab
- Kd: 0.0379 nM
- koff: 1.43e-05 s⁻¹
- kon: 379000 M⁻¹ s⁻¹

B12: ZAP122m2 Fab (Fab, V domains shown)
VH: B1 VH with R75K
VL: B1 VL with Y37Q
notes: Fab
- Kd: 0.034 nM
- koff: 1.23e-05 s⁻¹
- kon: 363000 M⁻¹ s⁻¹

B13: ZAP122m18 Fab (Fab, V domains shown)
VH: B1 VH with R65S
VL: B1 VL with Y37Q
notes: Fab; also called clone m18
- Kd: 0.0463 nM
- koff: 1.4e-05 s⁻¹
- kon: 302000 M⁻¹ s⁻¹

B14: ZAP122m10 Fab (Fab, V domains shown)
VH: B1 VH
VL: B1 VL with Y37Q, L96A
notes: Fab
- Kd: 2.4 nM
- koff: 0.000613 s⁻¹
- kon: 256000 M⁻¹ s⁻¹

B15: ZAP122m21 Fab (Fab, V domains shown)
VH: B1 VH with G100A
VL: B1 VL with Y37Q
notes: Fab
- Kd: 2.19 nM
- koff: 0.0011 s⁻¹
- kon: 505000 M⁻¹ s⁻¹

B16: ZAP122m19 Fab (Fab, V domains shown)
VH: B1 VH with R97A
VL: B1 VL with Y37Q
notes: Fab
- Kd: 6.08 nM
- koff: 0.000775 s⁻¹
- kon: 127000 M⁻¹ s⁻¹

B17: ZAP122m13 Fab (Fab, V domains shown)
VH: B1 VH with F33Y
VL: B1 VL with Y37Q
notes: Fab
- Kd: 0.0565 nM
- koff: 1.78e-05 s⁻¹
- kon: 316000 M⁻¹ s⁻¹

B18: ZAP122m23 Fab (Fab, V domains shown)
VH: B1 VH with T102A
VL: B1 VL with Y37Q
notes: Fab
- Kd: 0.137 nM
- koff: 3.29e-05 s⁻¹
- kon: 240000 M⁻¹ s⁻¹

B19: ZAP122m8 Fab (Fab, V domains shown)
VH: B1 VH
VL: B1 VL with Y37Q, F94A
notes: Fab
- Kd: 9.49 nM
- koff: 0.00251 s⁻¹
- kon: 264000 M⁻¹ s⁻¹

B20: ZAP122m27 Fab (Fab, V domains shown)
VH: B1 VH with F106A
VL: B1 VL with Y37Q
notes: Fab
- Kd: < 0.0242 nM
- koff: < 1e-05 s⁻¹
- kon: 414000 M⁻¹ s⁻¹

B21: ZAP122m24 Fab (Fab, V domains shown)
VH: B1 VH with D103A
VL: B1 VL with Y37Q
notes: Fab
- binding result: no binding

B22: ZAP122m9 Fab (Fab, V domains shown)
VH: B1 VH
VL: B1 VL with Y37Q, P95A
notes: Fab
- Kd: 0.249 nM
- koff: 5.93e-05 s⁻¹
- kon: 238000 M⁻¹ s⁻¹

B23: ZAP122m16 Fab (Fab, V domains shown)
VH: B1 VH with S53Y
VL: B1 VL with Y37Q
notes: Fab
- Kd: < 0.0283 nM
- koff: < 1e-05 s⁻¹
- kon: 353000 M⁻¹ s⁻¹

B24: ZAP122m7 Fab (Fab, V domains shown)
VH: B1 VH
VL: B1 VL with Y37Q, S93A
notes: Fab
- Kd: < 0.0258 nM
- koff: < 1e-05 s⁻¹
- kon: 387000 M⁻¹ s⁻¹

B25: ZAP122m4 Fab (Fab, V domains shown)
VH: B1 VH
VL: B1 VL with Y37Q, Q89A
notes: Fab
- Kd: 3.49 nM
- koff: 0.000253 s⁻¹
- kon: 72400 M⁻¹ s⁻¹

B26: ZAP122m14 Fab (Fab, V domains shown)
VH: B1 VH with G35S
VL: B1 VL with Y37Q
notes: Fab
- Kd: 1.01 nM
- koff: 0.000263 s⁻¹
- kon: 260000 M⁻¹ s⁻¹

B27: ZAP122m5 Fab (Fab, V domains shown)
VH: B1 VH
VL: B1 VL with Y37Q, Q90A
notes: Fab
- Kd: ≤ 0.088 nM
- koff: ≤ 1e-05 s⁻¹
- kon: 114000 M⁻¹ s⁻¹

B28: ZAP122p1 Fab (Fab, V domains shown)
VH: B1 VH
VL: B1 VL with Y37Q, N92Q
notes: Fab
- Kd: 0.0386 nM
- koff: 1.38e-05 s⁻¹
- kon: 357000 M⁻¹ s⁻¹
